# B1: MON-HT6: engineered oxygenase protein, amino acid sequence SEQ ID NO:31 (protein)
# chain: MHAALSPLSQKYRFIDVQPLTGVLGAEITGVTLREPLDDNTWNEILDAFHTYQVIYFPGQAITNEQHIAFSRRFGPVDPVPLLKSIEGYPEVQMIRREANESGRVIGDDWHTDSTFLDAPPAAVVMYAREVPPYGGDTGFLSMYSAWDTLSDTMKATIEGLNVVHSATRVFGSLYQAQNRRFSNTSVKVMDVDAGDRETVHPLVVSHPVTGRRALYCNQVYCQRIEGMTDAESKPLLQFLYEHATRFDFTCRVRWKKDQVLVWDNLCTMHRAVPDYAGKFRYLTRTTVAGDKPSR
# How the values were obtained:
# [1] = tested on: F1 hybrid maize plants; assay: efficacy field trial for 2,4-D tolerance; assay type: in vivo; settings: scale 0 to 100, with CTP unless label says no CTP
# Summary of the method: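 F1 hybrid maize carrying MON89034 crossed with MON-HT events, NK603×MON89034 hybrids as control, grown at two field locations. 2,4-D amine at 2, 4, 8 or 16 lb ac/acre plus 0.25% v/v NIS applied at VE-V2, V4 and V8; plots visually rated for injury after V4 and V8 applications.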
# [2] = kinetic analysis, non-endpoint assay at 23° C.; assay type: biochemical; settings: standard error in parenthetical
# Summary of the method: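 Purified C-terminal 6-His-tagged recombinant enzymes expressed in bacteria; quizalofop-P or 2,4-D as substrate. Vmax reported as specific activity (umol herbicide product mg enzyme-1 min-1) and Km as mM herbicide substrate, with standard error.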
# [3] = tested on: F1 hybrid maize plants; assay: efficacy field trial for quizalofop-P tolerance and clethodim sensitivity; assay type: in vivo; settings: scale 0 to 100
# Summary of the method: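 F1 hybrids of MON89034 × R1 plants carrying MON-HT constructs, NK603×MON89034 control, at two sites. Quizalofop-P at 0.32, 0.64 or 1.28 lb ai/acre + 0.25% v/v NIS at VE-V2, V4 and V8; clethodim 0.25 lb ai/acre + NIS at V8. Injury rated visually 0–100 at 10-14 days after application.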
# [4] = enzyme activity assay at 23° C. with purified enzyme; assay type: biochemical; settings: wild-type set at 100%
# Method: The enzyme activity of MON-HT protein variants with haloxyfop, fenoxaprop, fluazifop, and dichlorprop as substrates was determined using the enzyme activity assay conducted at 23° C. with purified enzyme. The activity was recorded as the maximum activity as a percentage of the wild-type enzyme's activity, which was set at 100%.
# [5] = NDB = activity not robust enough for kinetic characterization
# [6] = 0.32 lb ai/acre at VE-V2, V4, V8, with CTP unless label says no CTP
# [7] = 0.64 lb ai/acre at VE-V2, V4, V8, with CTP unless label says no CTP
# [8] = 1.28 lb ai/acre at VE-V2, V4, V8, with CTP unless label says no CTP
molecule,measurement,setting,value
B1,"average injury rating, V4 Growth Stage, 2x 2,4-D","[1]; 2 lb ae/acre at VE-V2, V4, V8",0.0
same,"average injury rating, V8 Growth Stage, 2x 2,4-D","[1]; 2 lb ae/acre at VE-V2, V4, V8",6.3
same,"average injury rating, V4 Growth Stage, 4x 2,4-D","[1]; 4 lb ae/acre at VE-V2, V4, V8",2.0
same,"average injury rating, V8 Growth Stage, 4x 2,4-D","[1]; 4 lb ae/acre at VE-V2, V4, V8",4.3
same,"average injury rating, V4 Growth Stage, 8x 2,4-D","[1]; 8 lb ae/acre at VE-V2, V4, V8",5.8
same,"average injury rating, V8 Growth Stage, 8x 2,4-D","[1]; 8 lb ae/acre at VE-V2, V4, V8",11.3
same,"average injury rating, V4 Growth Stage, 16x 2,4-D","[1]; 16 lb ae/acre at VE-V2, V4, V8",8.8
same,"average injury rating, V8 Growth Stage, 16x 2,4-D","[1]; 16 lb ae/acre at VE-V2, V4, V8",12.5
same,Vmax Quizalofop,"[2]; 23° C., purified His-tagged protein",0.39 (−0.03) umol herbicide product mg enzyme-1 min-1
same,Km,"[2]; 23° C., purified His-tagged protein, read-out: Km Quizalofop",100 µM
same,"Km 2,4-D",[2]; [5],NDB
same,"Vmax 2,4-D",[2]; [5],NDB
same,"average injury rating, V4 Growth Stage, 4x Quizalofop",[3]; [6],0.0
same,"average injury rating, V8 Growth Stage, 4x Quizalofop",[3]; [6],1.3
same,"average injury rating, V4 Growth Stage, 8x Quizalofop",[3]; [7],1.3
same,"average injury rating, V8 Growth Stage, 8x Quizalofop",[3]; [7],2.0
same,"average injury rating, V4 Growth Stage, 16x Quizalofop",[3]; [8],2.8
same,"average injury rating, V8 Growth Stage, 16x Quizalofop",[3]; [8],5.0
same,"average injury rating, V8 Growth Stage, 1x Clethodim","[3]; clethodim 0.25 lb ai/acre at V8, volunteer control",93.3
same,"maximum activity as a percentage of the wild-type enzyme's activity, Haloxyfop",[4]; purified enzyme,75%
same,"maximum activity as a percentage of the wild-type enzyme's activity, Dichlorprop",[4],37%
same,"maximum activity as a percentage of the wild-type enzyme's activity, Fluazifop",[4],47%
